In paper PMC12203367, “Shikimate Kinase-Like 1 Participates in an Ancient and Conserved Role Contributing to Chloroplast Biogenesis in Land Plants” (Molecular Biology and Evolution, 2025):

Substrate: O=C(O)C1=C[C@@H](O)[C@@H](O)[C@H](O)C1
Assay: purified protein
Format: biochemical, Marchantia polymorpha
Conditions: 2.5 mM ATP, 1 mM MgCl2, 50 mM Tris-HCl pH 7.5, 200 mM NaCl, 30 °C, shikimate 0-3 mM

B1: MpSK (Δ113MpSK) (Marchantia polymorpha) (protein)
chain: QYSLELQEDEELLKKKAALVVQQLAGSCIFLVGMMGSGKTTVGKHVSEALGYYFFDSDKLVEESRGKTVAEMFRYGREEEFRNAESEVLEQLSSMVRLVVATGGGAVVRPENWSYLRHGITVWLDVPVDSLAERVVAVGCHSRPLLGVQAHDSAYKQALERLTHILQERADFYASADAVVSVEELARKRGQDINSITPTMIAVQVLEEISKMLERGDRDPSLQY
notes: N-terminal 113 residues (predicted chloroplast transit peptide) removed; cloned from Tak-2 cDNA; pET28a-MOD, C-terminal His6 cleaved by TEV; E. coli BL21-CodonPlus
Km: 782.5 µM
kcat: 1.0 s⁻¹
